Experimental data from patent US20200392252A1 (ALLOGENE THERAPEUTICS, published 2020).
Residue numbers refer to the chain shown, from its start.

T1: FokI catalytic domain protein including a C-terminal 6xHis tag and GSGS linker (Flavobacterium okeanokoites, UniProt P14870 426-579)
T1 construct: also called Fok-1; Fok1
T1 sequence: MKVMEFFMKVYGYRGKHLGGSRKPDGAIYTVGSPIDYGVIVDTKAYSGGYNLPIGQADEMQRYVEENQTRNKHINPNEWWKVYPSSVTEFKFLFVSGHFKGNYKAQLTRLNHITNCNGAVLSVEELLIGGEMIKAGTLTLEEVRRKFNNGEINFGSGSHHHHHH

B1: 2299.5D4.C8 (antibody, V domains shown)
VH: QIQLVQSGPELKKPGETVKISCKASGYTFTDYSIHWVKQAPGEGLKWMAWINTETGAPTFADDFKGRLALSLETSANTAYLQINNLKHEDTATYFCAKEGGFYFYAMDYWGQGTSVTVSS
VL: DIVMSQSPSSLAVSAGEKVTMSCKSSQSLLSSRTRKNYLAWYQQKPGQAPKLLISWASTRESGVPDRFTGSGSGTEFTLTISSVQAEDLAVYYCKQSYNLRTFGGGTKLEIK
B2: 2299.2G3.C6 (antibody, V domains shown)
VH: B1 VH
VL: B1 VL with L11R, L52M, S62F, S73F, E76D, A86G, L100F
B3: 2299.6G5.C7 (antibody, V domains shown)
VH: B1 VH with E43K, A49G, L68F, L70F, N77S, Y80F, H88N, V116L
VL: B1 VL with A15T, E76D, Y98F
B4: 2299.7F11.B4 (antibody, V domains shown)
VH: B1 VH with E43K, A57D, F60Y, A61E, L68F, L70F, N77S, H88N, A97S
VL: B1 VL with A49S, S55K, E76D
B5: 2299.6B3.B8.B6 (antibody, V domains shown)
VH: QIQLVQSGPELKKPGETVKISCKASGYAFTDYSIHWMKQAPGEGLQWMGWINTETAKPAFGDDFKGRFAFSLETSANTAHLHINNLRTEDTATYFCAKEGGFYFYAMDYWGQGTSVTVSS
VL: B1 VL with S22N, A49S, S55Y, E61D, E76D, L100F

molecular target: T1, FokI catalytic domain protein including …; experiment: Biacore SPR, antibody as ligand, FokI as analyte

Binder | Kd [nM] | koff [s⁻¹] | kon [M⁻¹ s⁻¹] | t1/2 [h]
B1 | < 7.63 | < 8.55e-05 | 11200 | > 2.25
B2 | < 4.83 | < 8.55e-05 | 17700 | > 2.25
B3 | < 16.2 | < 8.55e-05 | 5270 | > 2.25
B4 | < 1.13 | < 8.55e-05 | 75700 | > 2.25
B5 | < 8.66 | < 8.55e-05 | 9870 | > 2.25
